The text below walks through data of US20220220224A1 (Hoffmann-La Roche, published 2022).

Assay [1] concerns the target T1, human FolR2 on transfected HEK cells (human, UniProt P14207 17-230).
T1 construct: whole, on cells
Nature of the assay: flow cytometry on transfected HEK cells. In general terms: Flow cytometry measures light scatter and fluorescence of single cells or particles in a stream.

Assay [2] has as its target T2, recombinant biotinylated monomeric Fc fusion of human Folate Receptor 2 (hu FolR2 ECD-AcTev-Fcknob-Avi tag … (human, UniProt P0DOX5 223-449 = IgG part, biotin on the C-terminal Avi tag)).
T2 construct: also called FolR2-Fc
The experiment in a line: SPR Biacore, single injection on immobilized antigen-Fc. How it is done:
(§1) Binding of FolR1 binders as IgG or in the T-cell bispecific format to different recombinant folate receptors (human FolR1, 2 and 3, murine FolR1 and cynomolgus FolR1; all as Fc fusions) was assessed by surface plasmon resonance (SPR). All SPR experiments were performed on a Biacore T200 at 25° C. with HBS-EP as running buffer (0.01 M HEPES pH 7.4, 0.15 M NaCl, 3 mM EDTA, 0.005% Surfactant P20, Biacore, Freiburg/Germany).
(§2) First the anti-FolR1 IgGs were analyzed by single injections (Table 1) to characterize their crossreactivity (to human, murine and cyno FolR1) and specificity (to human FolR1, human FolR2, human FolR3). Recombinant biotinylated monomeric Fc fusions of human, cynomolgus and murine Folate Receptor 1 (FolR1-Fc) or human Folate Receptor 2 and 3 (FolR2-Fc, FolR3-Fc) were directly coupled on a SA chip using the standard coupling instruction (Biacore, Freiburg/Germany). The immobilization level was about 300-400 RU. The IgGs were injected for 60 seconds at a concentration of 500 nM.
(SPR reads the build-up and loss of mass on a sensor chip optically.)

Assay [3] has as its target T3, recombinant biotinylated monomeric Fc fusion of human Folate Receptor 3 (hu FolR3 ECD-AcTev-Fcknob-Avi tag … (human, UniProt P0DOX5 223-449 = IgG part, biotin on the C-terminal Avi tag)).
T3 construct: also called FolR3-Fc
The description is as above. The procedure:
as §1, §2

The target in assay [4] is T4, recombinant biotinylated monomeric Fc fusion of murine Folate Receptor 1 (mu FolR1 ECD-AcTev-Fcknob-Avitag … (murine, UniProt P0DOX5 223-449 = IgG part, biotin on the C-terminal Avi tag)).
T4 construct: also called muFolR1-Fc; murine FolR1
The assay is described as above. How it is done:
as §1, §2

T1 sequence (P14207 17-230): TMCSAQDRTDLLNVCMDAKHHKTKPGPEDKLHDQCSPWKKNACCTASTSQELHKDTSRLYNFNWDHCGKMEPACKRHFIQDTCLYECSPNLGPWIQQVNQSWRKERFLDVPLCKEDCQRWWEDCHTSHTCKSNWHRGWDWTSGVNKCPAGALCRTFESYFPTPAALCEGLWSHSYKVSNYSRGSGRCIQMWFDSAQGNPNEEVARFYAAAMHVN

B1: 16D5 IgG (antibody, V domains shown)
VH: not shown
VL: QAVVTQEPSLTVSPGGTVTLTCGSSTGAVTTSNYANWVQEKPGQAFRGLIGGTNKRAPGTPARFSGSLLGGKAALTLSGAQPEDEAEYYCALWYSNLWVFGGGTKLTVL
notes: human IgG1
For B1, the binding result in assay [1] is listed as “no binding”; in assay [2], “no binding (tested: 500 nM)”; in assay [3], “no binding (tested: 500 nM)”; in assay [4] it was “no binding (tested: 500 nM)”.

B2: 21A5 IgG (antibody, V domains shown)
VH: not shown
VL: B1 VL
notes: human IgG1
For B2, the binding result in assay [1] was “no binding”; in assay [2], “no binding (tested: 500 nM)”; in assay [4], “no binding (tested: 500 nM)”.
